From publication PMC10578488 (RNA, 2023) come the findings set out here.

The labels stand for the following.
B3: Lsm10-MBP/Lsm11 heterodimer (wild-type, full-length Lsm11) (complex, human)
chain 1: MAVSHSVKERTISENSLIILLQGLQGRVTTVDLRDESVAHGRIDNVDAFMNIRLAKVTYTDRWGHQVKLDDLFVTGRNVRYVHIPDDVNITSTIEQQLQIIHRVRNFGGKGQGRWEFPPKNCK
chain 2: MEERERGARSAGAGSPARPPSPRLDVSSDSFDPLLALYAPRLPPIPYPNAPCFNNVAEYESFLRTGVRGGGRGRGRARGAAAGSGVPAAPGPSGRTRRRPDAPAPDPERIQRLRRLMVAKEEGDGAAGAGRRGPGRSRKAPRNVLTRMPLHEGSPLGELHRCIREGVKVNVHIRTFKGLRGVCTGFLVAFDKFWNMALTDVDETYRKPVLGKAYERDSSLTLTRLFDRLKLQDSSKKEADSKSAVEDSTLSRYSQTSTWKLASVWGRADTGRGSHKRSRSVPSSLQASAREESRSELSGRTTRTDGSSVGGTFSRATTLSRGQSRKKKRKPKVDYQQVFTRHINQIFIRGENVLLVHLAQ
notes: Lsm10, human, full length; Lsm11, human, full length, 360 amino acids; The results call the fusion Lsm10-MBP, the methods say MBP was added to the amino terminus of Lsm10; also called Lsm10/11; 10/11; source: baculovirus-expressed, recombinant; not shown: MBP, N-terminal, kept

Settings in all cases: both partners purified
The target in assay [1] is T1, recombinant PRMT5/MEP50 complex (human, UniProt O14744 1-637; Q9BQA1 1-342).
T1 construct: PRMT5, human, full length; MEP50, human, full length; also called PRMT5/MEP50 heterooctamer; PRMT5/MEP50 heterodimer; source: High5 insect cells (baculovirus), coexpressed, purified (nickel beads, Superdex 200); copies: 4 + 4
The assay can be described thus: cryo-EM structure; PRMT5/MEP50, Lsm10/11 and pICln mixed 1:1:1.2, complex purified on Superose 6 (25 mM Tris pH 7.5, 150 mM NaCl, 2 mM DTT); map at 2.86 Å, C1 symmetry.

Assay [2] concerns the target T2, recombinant human PRMT5 (chain of the PRMT5/MEP50 complex) (human, UniProt O14744 1-637).
T2 construct: PRMT5, human, full length; The PRMT5 chain of m17, written alone for the pairs seen in the cryo-EM structures; source: High5 insect cells (baculovirus), coexpressed with MEP50, purified (nickel beads, Superdex 200)
The assay is described as above.

Assay [3] deals with B3. As to the kind of experiment: pull-down; recombinant PRMT5/MEP50 mixed with MBP-Lsm10/11 heterodimer (molar ratio 1:1) in the presence of recombinant pICln, collected on amylose beads via MBP on Lsm10; silver staining.
Assay [4] addresses T1, recombinant PRMT5/MEP50 complex. As to the kind of experiment: pull-down; recombinant PRMT5/MEP50 mixed with MBP-Lsm10/11 heterodimer (molar ratio 1:1) without pICln, collected on amylose beads via MBP on Lsm10; silver staining.

T1 sequence (O14744 whole entry, chain 1 of 2): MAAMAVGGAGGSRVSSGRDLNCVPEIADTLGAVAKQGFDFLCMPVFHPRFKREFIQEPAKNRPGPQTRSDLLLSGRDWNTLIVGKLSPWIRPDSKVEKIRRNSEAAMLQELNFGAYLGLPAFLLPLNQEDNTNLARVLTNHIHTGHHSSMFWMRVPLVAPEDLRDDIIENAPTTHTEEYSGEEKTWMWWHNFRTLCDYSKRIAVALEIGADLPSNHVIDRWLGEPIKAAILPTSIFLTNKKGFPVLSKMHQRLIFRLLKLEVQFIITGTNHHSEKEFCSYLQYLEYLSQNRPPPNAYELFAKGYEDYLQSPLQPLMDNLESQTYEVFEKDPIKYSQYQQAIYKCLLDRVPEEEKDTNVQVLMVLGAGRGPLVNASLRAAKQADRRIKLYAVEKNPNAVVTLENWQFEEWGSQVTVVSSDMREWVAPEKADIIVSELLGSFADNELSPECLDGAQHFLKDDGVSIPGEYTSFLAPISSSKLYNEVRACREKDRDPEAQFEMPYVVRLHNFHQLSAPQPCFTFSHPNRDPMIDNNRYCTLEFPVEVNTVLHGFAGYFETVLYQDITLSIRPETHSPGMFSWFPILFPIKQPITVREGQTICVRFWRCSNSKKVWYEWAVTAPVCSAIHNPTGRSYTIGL
T1 sequence (Q9BQA1 whole entry, chain 2 of 2): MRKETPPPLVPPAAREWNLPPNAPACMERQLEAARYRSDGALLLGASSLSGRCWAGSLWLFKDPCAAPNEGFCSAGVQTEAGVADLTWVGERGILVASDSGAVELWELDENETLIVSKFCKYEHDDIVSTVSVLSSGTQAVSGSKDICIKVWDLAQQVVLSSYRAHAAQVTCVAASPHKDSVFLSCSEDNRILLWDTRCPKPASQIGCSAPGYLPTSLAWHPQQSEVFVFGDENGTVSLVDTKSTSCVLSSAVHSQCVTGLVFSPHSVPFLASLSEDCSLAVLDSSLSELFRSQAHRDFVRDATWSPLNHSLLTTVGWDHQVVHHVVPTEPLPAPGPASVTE
T2 sequence (O14744 whole entry, one chain of several): as the sequence (O14744 whole entry, chain 1 of 2) above

B1: recombinant mouse pICln (natural protein, UniProt Q61189 1-236, looked up)
chain: MSFLKSFPPPGSADGLRLQQPDTEAVLNGKGLGTGTLYIAESRLSWLDGSGLGFSLEYPTISLHAVSRDPNAYPQEHLYVMVNAKLGEESKEPPSDEDEEDNDDIEPISEFRFVPSDKSALEAMFTAMCECQALHPDPEDEDSDDYDGEEYDVEAHEQGQGDIPTFYTYEEGLSHLTAEGQATLERLEGMLSQSVSSQYNMAGVRTEDSVRNYEDGMEVETTPTVAGQFEDADVDH
notes: pICln, mouse, full length; source: E. coli Rosetta, purified (nickel beads, MonoQ)
Regarding B1, the binding result in assay [1], in assay [2] and in assay [3] was “binds” each time.

B2: Lsm11 lacking residues 211-322 (chain of the Lsm10/11 heterodimer) (natural protein, human, UniProt P83369 1-360, looked up)
chain: MEERERGARSAGAGSPARPPSPRLDVSSDSFDPLLALYAPRLPPIPYPNAPCFNNVAEYESFLRTGVRGGGRGRGRARGAAAGSGVPAAPGPSGRTRRRPDAPAPDPERIQRLRRLMVAKEEGDGAAGAGRRGPGRSRKAPRNVLTRMPLHEGSPLGELHRCIREGVKVNVHIRTFKGLRGVCTGFLVAFDKFWNMALTDVDETYRKPVLQSRKKKRKPKVDYQQVFTRHINQIFIRGENVLLVHLAQ
notes: Lsm11, human, lacking residues 211-322 (internal loop); The Lsm11 chain of m2, written alone for the pairs Lsm11-PRMT5 and Lsm11-Lsm10; also called Lsm11ΔL; source: High5 insect cells (baculovirus), coexpressed with MBP-Lsm10, purified (nickel beads, HiTrap Heparin)
In the case of B2, the binding result in assay [2] is “binds”.

In the case of B3, the binding result in assay [4] is “binds”.

B4: Lsm10/11ΔL heterodimer (MBP-Lsm10 with Lsm11 lacking the internal loop, amino acids 211-322) (complex, human)
chain 1: MAVSHSVKERTISENSLIILLQGLQGRVTTVDLRDESVAHGRIDNVDAFMNIRLAKVTYTDRWGHQVKLDDLFVTGRNVRYVHIPDDVNITSTIEQQLQIIHRVRNFGGKGQGRWEFPPKNCK
chain 2: MEERERGARSAGAGSPARPPSPRLDVSSDSFDPLLALYAPRLPPIPYPNAPCFNNVAEYESFLRTGVRGGGRGRGRARGAAAGSGVPAAPGPSGRTRRRPDAPAPDPERIQRLRRLMVAKEEGDGAAGAGRRGPGRSRKAPRNVLTRMPLHEGSPLGELHRCIREGVKVNVHIRTFKGLRGVCTGFLVAFDKFWNMALTDVDETYRKPVLQSRKKKRKPKVDYQQVFTRHINQIFIRGENVLLVHLAQ
notes: Lsm10, human, full length; Lsm11, human, lacking residues 211-322 (internal loop); Purified on nickel beads; also called Lsm10/11ΔL dimer; Lsm11ΔL; source: High5 insect cells (baculovirus), purified (nickel beads, HiTrap Heparin); not shown: MBP, N-terminal, kept
Take B4: the binding result in assay [1] is reported as “binds”.
